# Results reported in paper PMC5650172, “Impact of the structural integrity of the three-way junction of adenovirus VAI RNA on PKR inhibition”.
# Key:
# PKR (full length) = PKR (full length) (human, UniProt P19525 1-551); assay: EMSA; 5 mM Mg2+; Kd only in figure inset; […], room temperature 10 min, […]; SEC: 50 mM Tris pH 7.5, 100 mM NaCl, 5 mM MgCl2; settings: protein: recombinant; three-way junction RNA, apical and central stem-loops
# PKR1-169 (tandem dsRBMs) = PKR1-169 (tandem dsRBMs) (human, UniProt P19525 1-169); assay: SEC co-elution, native PAGE; 5 mM Mg2+; 1.1-fold excess RNA; complex also studied by SAXS; […], room temperature 10 min, […]; SEC: 50 mM Tris pH 7.5, 100 mM NaCl, 5 mM MgCl2; settings: protein: recombinant; three-way junction RNA, apical and central stem-loops
# Sequence of PKR1-169 (tandem dsRBMs) (P19525 1-169): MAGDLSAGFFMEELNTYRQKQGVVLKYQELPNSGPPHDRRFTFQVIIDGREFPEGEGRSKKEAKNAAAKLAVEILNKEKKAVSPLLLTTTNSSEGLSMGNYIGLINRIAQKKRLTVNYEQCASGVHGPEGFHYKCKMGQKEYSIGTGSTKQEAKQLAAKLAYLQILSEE
# Sequence of PKR (full length) (P19525 whole entry): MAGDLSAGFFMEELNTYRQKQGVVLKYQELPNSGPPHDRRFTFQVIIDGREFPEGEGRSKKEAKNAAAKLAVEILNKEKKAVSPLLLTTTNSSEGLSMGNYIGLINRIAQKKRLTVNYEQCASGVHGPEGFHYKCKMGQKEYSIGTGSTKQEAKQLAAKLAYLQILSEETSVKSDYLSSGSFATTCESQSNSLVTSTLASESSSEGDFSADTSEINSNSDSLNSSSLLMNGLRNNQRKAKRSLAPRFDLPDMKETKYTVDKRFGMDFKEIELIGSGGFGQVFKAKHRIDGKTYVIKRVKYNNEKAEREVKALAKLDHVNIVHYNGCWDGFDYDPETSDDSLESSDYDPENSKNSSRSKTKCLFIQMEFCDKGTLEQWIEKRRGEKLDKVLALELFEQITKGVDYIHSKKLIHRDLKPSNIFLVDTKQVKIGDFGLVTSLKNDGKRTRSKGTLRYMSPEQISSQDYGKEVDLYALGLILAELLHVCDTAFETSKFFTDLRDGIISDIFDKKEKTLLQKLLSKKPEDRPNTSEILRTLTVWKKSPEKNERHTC
binder,measurement,setting,value
VAI dTS (wt RNA) (structured_RNA) RNA: GGCAAGGGUAUCAUGGCGGACGACCGGGGUUCGAACCCCGGAUCCGGCCGUCCGCCGUGAUCCAUGCGGUUACCGCCCGCGUGUCGAACCCAGGUGUGCC,binding result,PKR (full length),binds
same,binding result,PKR1-169 (tandem dsRBMs),binds
